Biological target: HA-tagged re-expressed version of the Qa-1b molecule (mouse)
Assay: immunoprecipitation of Qa-1b from tumor cells, mass spectrometry of the associated peptides

Sequence of HA-tagged re-expressed version of the Qa-1b molecule (mouse) (P06339 21-357, chain 1 of 2): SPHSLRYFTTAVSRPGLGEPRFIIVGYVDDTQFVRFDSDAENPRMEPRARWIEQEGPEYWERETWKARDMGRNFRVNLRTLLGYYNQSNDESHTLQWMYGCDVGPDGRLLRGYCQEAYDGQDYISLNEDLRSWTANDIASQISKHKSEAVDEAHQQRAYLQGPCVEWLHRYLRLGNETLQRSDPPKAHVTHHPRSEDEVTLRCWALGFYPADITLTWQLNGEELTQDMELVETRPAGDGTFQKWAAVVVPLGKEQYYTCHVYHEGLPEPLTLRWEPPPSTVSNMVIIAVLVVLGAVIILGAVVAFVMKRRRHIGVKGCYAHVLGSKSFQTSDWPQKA
Sequence of HA-tagged re-expressed version of the Qa-1b molecule (mouse) (P01887 21-119, chain 2 of 2, further chain): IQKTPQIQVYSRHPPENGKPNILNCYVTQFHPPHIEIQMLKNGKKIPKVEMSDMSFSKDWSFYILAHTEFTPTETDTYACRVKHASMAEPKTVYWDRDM

B1: Mouse Qdm Peptide (peptide)
peptide: AMAPRTLLL
  percent of Qa-1b associated with the peptide (control sample): > 99%

— patent US20220057403A1
